The target of data set [1] is T1, MqsR, his6-tag cleaved, co-expressed with MqsA-N (E. coli, UniProt Q46865 1-98).
T1 construct: MqsR (YgiU, b3022) toxin of Escherichia coli, 98 residues; 1-97 seen in the first complex of the crystal; also called YgiU; B3022; not shown: His6, N-terminal, cleaved
T1 sequence (looked up): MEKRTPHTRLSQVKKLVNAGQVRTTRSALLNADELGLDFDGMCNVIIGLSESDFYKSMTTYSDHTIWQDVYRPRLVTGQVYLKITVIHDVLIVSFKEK
Briefly: SEC + other: dynamic light scattering; co-expressed and co-purified complex on a size exclusion column (Superdex 75 26/60 for MqsR:MqsA-F); oligomeric state confirmed by dynamic light scattering. The following applies: both partners purified.

Data set [2] deals with T2, MqsR (his-tagged), co-expressed with full-length MqsA (E. coli, UniProt Q46865 1-98).
T2 construct: MqsR (YgiU, b3022) toxin of Escherichia coli, 98 residues; also called YgiU; B3022; not shown: His6, N-terminal, kept
T2 sequence (looked up): T1 sequence (looked up)
Described as above. The following applies: both partners purified.

Data set [3] concerns the molecule itself. The data set is described as above.
Data set [4] deals with the molecule itself. Nature of the data set: crystal structure; MqsA-F, 2.15 Å, molecular replacement; sitting drop at 4°C, 75 mM Bis-Tris pH 5.5, 150 mM MgCl2, 19% PEG3350; two molecules in the asymmetric unit.

The values that follow come from paper PMC2791442, “Three Dimensional Structure of the MqsR:MqsA Complex: A Novel TA Pair Comprised of a Toxin Homologous to RelE and an Antitoxin with Unique Properties” (PLoS Pathogens, 2009).

B1: MqsA N-terminal domain (MqsA-N), untagged, co-expressed with MqsR (domain or fragment, E. coli, UniProt Q46864 1-76, looked up)
chain: MKCPVCHQGEMVSGIKDIPYTFRGRKTVLKGIHGLYCVHCEESIMNKEESDAFMAQVKAFRASVNAETVAPEFIVK
notes: MqsA (YgiT, b3021) antitoxin of Escherichia coli, N-terminal domain, residues 1-76; Untagged pCA21a vector; source: E. coli BL21 (DE3), co-expressed with MqsR, purified (his6-tag of MqsR, thrombin cleavage, subtraction his6-tag, SEC)
As to B1, the “stoichiometry N” value in data set [1] is 1 MqsA-N per MqsR (1:1 heterodimer).

B2: Full-length MqsA (MqsA-F), untagged, co-expressed with MqsR (natural protein, E. coli, UniProt Q46864 1-131, looked up)
chain: MKCPVCHQGEMVSGIKDIPYTFRGRKTVLKGIHGLYCVHCEESIMNKEESDAFMAQVKAFRASVNAETVAPEFIVKVRKKLSLTQKEASEIFGGGVNAFSRYEKGNAQPHPSTIKLLRVLDKHPELLNEIR
notes: MqsA (YgiT, b3021) antitoxin of Escherichia coli, residues 1-131; Two copies stand in the MqsR:MqsA2:MqsR complex; also called YgiT; B3021; source: co-expressed with his-tagged MqsR, co-purified, SEC
On to B2, for which the “stoichiometry N” value in data set [2] was 1 MqsA-F per MqsR (2:2 complex). In data set [3], the binding result is on record as “binds”.

B3: Full-length MqsA (MqsA-F), his6-tag cleaved (natural protein, E. coli, UniProt Q46864 1-131, looked up)
chain: B2 chain
modifications: Gln108 methylated at N5
notes: MqsA (YgiT, b3021) antitoxin of Escherichia coli, residues 1-131; Modified pET28a with a TEV site; also called YgiT; B3021; source: E. coli One Shot BL21 (DE3), purified (his6-tag, TEV cleavage, subtraction his6-tag, SEC); not shown: His6, N-terminal, cleaved
As for B3, the binding result in data set [4] is listed as “binds”.
